The source of these data is patent publication EP0368684A1.

The Kd is the constant that tells how readily two partners part at equilibrium.

Test [1] addresses hen egg white lysozyme (hen) (UniProt P00698). Kind of test: fluorescence quench titration with lysozyme.
The target is the same in test [2]. Kind of test: calculated from the on-rate and off-rate of the stopped-flow analysis.
Test [3] has the same target. Nature of the test: fluorescence quench titration, VHLYS concentration from quantitative amino acid analysis. The following applies: scale: mole of lysozyme per mole of VHLYS domain.

Sequence of UniProt P00698 (P00698 19-147 limits assumed): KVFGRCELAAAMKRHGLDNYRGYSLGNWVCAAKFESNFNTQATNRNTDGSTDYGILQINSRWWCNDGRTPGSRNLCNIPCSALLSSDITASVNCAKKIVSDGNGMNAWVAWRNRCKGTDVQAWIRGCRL

As for “VHLYS domain (heavy chain variable domain of the D1.3 anti-lysozyme antibody)”, the Kd is 12 nM in test [1] and 19 nM in test [2]. The stoichiometry (mole of lysozyme per mole of VHLYS domain) in test [3] stood at 1.2.
